Legend:
purified protein [1] = substrate: O=CC(O)COP(=O)(O)O; test: purified protein; type: biochemical, Taenia solium; conditions: 0.1 M TEA-HCl pH 7.4, 10 mM EDTA, 0.2 mM NADH, 21 °C, G3P 0 to 5 mM, G3P to DHAP direction
purified protein [2] = substrate: O=CC(O)COP(=O)(O)O; test: purified protein; type: biochemical, Schistosoma mansoni; conditions: 0.1 M TEA-HCl pH 7.4, 10 mM EDTA, 0.2 mM NADH, 21 °C, G3P 0 to 5 mM, G3P to DHAP direction

Protein	Km (purified protein [1])	kcat (purified protein [1])	kcat/Km (purified protein [1])	Km (purified protein [2])	kcat (purified protein [2])	kcat/Km (purified protein [2])
TsTPI (Taenia solium) (protein, full length, codon-optimised synthetic gene, E. coli tpi-null strain, modified pET19; extra Gly-Pro-His before Met1; homodimer) MTRKLFVGGNWKMNGSYSHINTFFDTLQKADTDPNADIVIGVPACYLKYAQDKAPKGIKIAAENCYKVGSGAFTGEISTEMIKDCGCEWVILGHSERRHIFGESNELIGEKVKHALDSGLNVIPCIGELLSEREAGKTNDVCFAQMDAIAKNVPSKEAWDKVVIAYEPVWAIGTGKTATPAQAQEVHKVVRDWIRKHVDAGIADKVRILYGGSVTASNAKDLGTQPDVDGFLVGGASLKPDFITIINARR	310 ± 30 µM	993 ± 44 s⁻¹	3.15e+06 M⁻¹ s⁻¹	–	–	–
SmTPI (Schistosoma mansoni) (protein, full length, codon-optimised synthetic gene, E. coli tpi-null strain, modified pET19; extra Gly-Pro-His before Met1; homodimer about 50 kDa) MSGSRKFFVGGNWKMNGSRDDNDKLLKLLSEAHFDDNTEVLIAPPSVFLHEIRKSLKKEIHVAAQNCYKVSKGAFTGEISPAMIRDIGCDWVILGHSERRNIFGESDELIAEKVQHALAEGLSVIACIGETLSERESNKTEEVCVRQLKAIANKIKSADEWKRVVVAYEPVWAIGTGKVATPQQAQEVHNFLRKWFKTNAPNGVDEKIRIIYGGSVTAANCKELAQQHDVDGFLVGGASLKPEFTEICKARQR	–	–	–	480 ± 70 µM	2870 ± 138 s⁻¹	5.8e+06 M⁻¹ s⁻¹

Reference: paper PMC6980832, “Crystal structures of Triosephosphate Isomerases from Taenia solium and Schistosoma mansoni provide insights for vaccine rationale and drug design against helminth parasites” (PLoS Neglected Tropical Diseases, 2020)
